Experimental data reported in the supplement of paper PMC10567573.

B1: CCND1 (parent)
chain: IRRAYPDANLLNDRVLRAMLKAEE
B2: SPDEF (parent)
chain: FQELAGKELCAMSEEQFRQRSPLG

Variants of: B1
Test: protein stability index of a GFP-peptide fusion (GPS, HEK-293T) (PSI 1-6); higher = more stable
Conditions: c terminus: a fixed tail appended
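Also: lentivirally expressed fusions sorted by FACS into six bins by GFP to DsRed ratio, PSI derived from sequencing read proportions per bin multiplied by bin number.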

Protein stability index of substitutions, site by site:
K21: I 2.38, N 3.04, M 1.76, T 3.33, Q 1.89, S 2.72, G 2.52, H 2.56, E 2.73, F 1.47, L 3.01, P 3.85, V 2.93, W 1.83, R 2.79
E24: H 2.04, P 2.39, L 1.8, R 2.02, Y 1.35, M 1.87, A 3.57, V 1.23, I 3, S 3.28, K 2.05, D 2.67, W 1.52, T 2.33, C 2.08, F 1.55, N 2.7
A22: V 2.21, E 3.08, H 2.8, Y 2.43, W 2.74, P 3.69, I 2.1, M 2.41, R 2.3, Q 2.64, K 3.27, S 2.37, N 2.86, D 2.73, L 1.78, F 1.92, T 2.8
E23: W 1.84, M 2.3, D 2.42, Q 3.18, N 2.18, I 1.21, L 3.39, Y 2.45, A 1.87, V 1.8, C 1.92, T 2.61, R 2.37, S 2.3, K 2.75, H 1.62, F 1.62

Variants of: B2
Test: as above
Conditions: c terminus: a fixed tail appended

Protein stability index, by site and new letter:
P22: R 2.53, N 2.59, Y 2.2, K 2.77
L23: P 3.25, M 2.84, A 3.02, I 2.9, V 3.09, Q 3.58, T 2.77
G6: C 2.28, Y 1.9, F 1.84, V 1.68
R18: D 3.37, T 2.83, V 2.8, K 2.46, Q 2.81, A 2.93, S 2.82
Q19: D 2.87, G 2.53, M 2.33, L 2.24, S 2.45
S13: H 2.2, C 2.11, L 1.71, G 2.57, P 3.18
S21: L 2.6, A 2.73
E14: W 2.95, P 2.38, F 2.22
L4: P 3.99, I 3.15, H 3.85
Q2: S 2.55, C 2.36, L 2.12
R20: I 2.86, M 2.1, C 2.4, A 2.79
Q16: T 2.65, N 2.74, G 2.74, P 2.47
K7: A 2.58, S 2.94, I 1.81, T 3.38
E8: W 2.87, K 2.32, G 1.73, N 2.27, P 2.06, D 2.79
A5: Y 2.6, S 2.24, Q 3.32, P 3.58
E3: G 2.11, M 1.79
E15: L 2.32, H 2.01
G24: L 2.67, Y 2.12, W 1.93, D 3.14, F 2.05
L9: M 3.41, H 3.9, N 4.37, C 2.63, P 3.83, E 4.93
A11: H 3.35, L 2.23, W 2.83, C 1.83, K 2.61
F17: P 3.28, C 3.14, R 2.97, A 3.37, Y 2.93, T 3.63
F1: C 3.9, G 4.57, A 4.29, Y 3.02, R 4.99
C10: P 4.32, W 1.9, M 2.91, S 3.4, K 2.67
